Measurements taken from patent US20180155451A1 (published 2018).

T1: FcγRIIb extracellular domain with C-terminal His tag (human, UniProt P31994 43-217)
T1 construct: extracellular domain; also called FcgRIIb; 2b; not shown: His tag attached to the C terminus
T1 sequence (looked up): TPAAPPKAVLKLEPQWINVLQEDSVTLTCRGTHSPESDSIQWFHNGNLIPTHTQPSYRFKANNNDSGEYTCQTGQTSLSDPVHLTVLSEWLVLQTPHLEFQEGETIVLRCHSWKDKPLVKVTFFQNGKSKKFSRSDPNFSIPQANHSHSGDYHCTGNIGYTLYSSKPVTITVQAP

T2: FcγRIIb (human, UniProt P31994 43-217)
T2 construct: extracellular domain; Soluble extracellular domain with C-terminal His tag, used as analyte in Biacore; also called FcgRIIb; 2b; not shown: His tag attached to the C terminus
T2 sequence (looked up): T1 sequence (looked up)

B1: GpH7-A5/GpH7-B3 variant A327_01G/GpL16-k0 (antibody, human IgG1, kappa)
heavy 1: not shown
heavy 2: not shown
light: DIVMTQSPLSLPVTPGEPASISCQASESLVHSNRNTYLHWYLQKPGQSPQLLIYKVSNRFSGVPDRFSGSGSGTDFTLKISRVEAEDVGVYYCSQNTHVPPTFGQGTKVEIERTVAAPSVFIFPPSDEQLKSGTASVVCLLNNFYPREAKVQWKVDNALQSGNSQESVTEQDSKDSTYSLSSTLTLSKADYEKHKVYACEVTHQGLSSPVTKSFNRGEC
notes: Heterodimerized IgG1; alteration in one H chain only; also called He Ab
B2: GpH7-A5/GpH7-B3 variant A327_14T/GpL16-k0 (antibody, human IgG1, kappa)
heavy 1: not shown
heavy 2: not shown
light: B1 light
notes: as for B1
B3: GpH7-A5/GpH7-B3 variant A327_09D/GpL16-k0 (antibody, human IgG1, kappa)
heavy 1: not shown
heavy 2: not shown
light: B1 light
notes: as for B1
B4: GpH7-A5/GpH7-B3 variant A327_04F/GpL16-k0 (antibody, human IgG1, kappa)
heavy 1: not shown
heavy 2: not shown
light: B1 light
notes: as for B1
B5: GpH7-A5/GpH7-B3 variant A327_07I/GpL16-k0 (antibody, human IgG1, kappa)
heavy 1: not shown
heavy 2: not shown
light: B1 light
notes: as for B1
B6: GpH7-A5/GpH7-B3 variant A327_10E/GpL16-k0 (antibody, human IgG1, kappa)
heavy 1: not shown
heavy 2: not shown
light: B1 light
notes: as for B1
B7: GpH7-A5/GpH7-B3 variant S298_05P/GpL16-k0 (antibody, human IgG1, kappa)
heavy 1: not shown
heavy 2: not shown
light: B1 light
notes: as for B1
B8: GpH7-A5/GpH7-B3 variant S239_07I/GpL16-k0 (antibody, human IgG1, kappa)
heavy 1: not shown
heavy 2: not shown
light: B1 light
notes: Heterodimerized IgG1; mutation in the GpH7-B3 H chain only; also called He Ab
B9: GpH7-A5/GpH7-B3 variant S239_03V/GpL16-k0 (antibody, human IgG1, kappa)
heavy 1: not shown
heavy 2: not shown
light: B1 light
notes: as for B8
B10: GpH7-A5/GpH7-B3 variant P238_20W/GpL16-k0 (antibody, human IgG1, kappa)
heavy 1: not shown
heavy 2: not shown
light: B1 light
notes: as for B8
B11: GpH7-A5/GpH7-B3 variant N325_07I/GpL16-k0 (antibody, human IgG1, kappa)
heavy 1: not shown
heavy 2: not shown
light: B1 light
notes: as for B8
B12: GpH7-A5/GpH7-B3 variant N325_06M/GpL16-k0 (antibody, human IgG1, kappa)
heavy 1: not shown
heavy 2: not shown
light: B1 light
notes: as for B8
B13: GpH7-A5/GpH7-B3 variant S239_06M/GpL16-k0 (antibody, human IgG1, kappa)
heavy 1: not shown
heavy 2: not shown
light: B1 light
notes: as for B8
B14: GpH7-A5/GpH7-B3 variant P238_19Q/GpL16-k0 (antibody, human IgG1, kappa)
heavy 1: not shown
heavy 2: not shown
light: B1 light
notes: as for B8
B15: GpH7-A5/GpH7-B3 variant S239_05P/GpL16-k0 (antibody, human IgG1, kappa)
heavy 1: not shown
heavy 2: not shown
light: B1 light
notes: as for B8
B16: GpH7-A5/GpH7-B3 variant P238_16H/GpL16-k0 (antibody, human IgG1, kappa)
heavy 1: not shown
heavy 2: not shown
light: B1 light
notes: as for B8
B17: GpH7-A5/GpH7-B3 variant N325_08L/GpL16-k0 (antibody, human IgG1, kappa)
heavy 1: not shown
heavy 2: not shown
light: B1 light
notes: as for B8

What follows are binders tested against T3, FcγRIIIa extracellular domain with C-terminal His tag (human, UniProt P08637 17-208) (assay: SPR (Biacore); He/Con_3a divided by He/Con_2b (reference: binding to FcγRIIb)).
T3 construct: extracellular domain; also called FcgRIIIa; 3a; not shown: His tag attached to the C terminus
T3 sequence (P08637 17-208): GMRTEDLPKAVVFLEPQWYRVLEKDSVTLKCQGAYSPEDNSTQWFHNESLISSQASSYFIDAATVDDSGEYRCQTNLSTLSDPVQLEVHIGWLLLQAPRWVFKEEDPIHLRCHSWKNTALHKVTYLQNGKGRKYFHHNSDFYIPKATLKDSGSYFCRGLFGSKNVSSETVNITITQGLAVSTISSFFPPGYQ
Procedure: (§1) Analysis of interaction between objective antibody and the FcγR was carried out using Biacore T100 (GE Healthcare). HBS-EP+ (GE Healthcare) was used as the running buffer, and the measurement temperature was set to 25° C. Chips produced by immobilizing the antigen peptide by the amine coupling method to a Series S Sencor Chip CM5 (GE Healthcare), or alternatively, chips produced by allowing preliminarily biotinylated antigen peptides to interact with and immobilize onto a Series S Sensor Chip SA (certified) (GE Healthcare) were used. Antibodies of interest were captured onto an antigen peptide-immobilized chip, and allowed to interact to each FcγR diluted with running buffer. To regenerate and repeatedly use the chip, the antibodies captured on the chip were washed off by reacting 10 mM glycine-HCl, pH 1.5.
(§2) The FcγR-binding activity of each antibody was assessed primarily using as an indicator the FcγR-binding activity and dissociation constant for FcγR.

Row | Binder | He_3a/2b (IIIa/IIb) [ratio]
1 | B1 | 0.63
2 | B2 | 0.46
3 | B3 | 0.49
4 | B4 | 0.72
5 | B5 | 0.33
6 | B6 | 0.49

Each binder was assayed against T3, FcγRIIIa extracellular domain with … (assay: SPR (Biacore), relative binding).
Procedure: as §1, §2

Row | Binder | He/Con_3a (IIIa binding)
7 | B1 | 72.4 % of GpH7-A5/GpH7-B3/GpL16-k0 (=100)
8 | B2 | 41.4 % of GpH7-A5/GpH7-B3/GpL16-k0 (=100)
9 | B3 | 83.7 % of GpH7-A5/GpH7-B3/GpL16-k0 (=100)
10 | B4 | 46.2 % of GpH7-A5/GpH7-B3/GpL16-k0 (=100)
11 | B5 | 42.4 % of GpH7-A5/GpH7-B3/GpL16-k0 (=100)
12 | B6 | 68.6 % of GpH7-A5/GpH7-B3/GpL16-k0 (=100)

These binders were tested against T1, FcγRIIb extracellular domain with … (assay: SPR (Biacore), relative binding).
Procedure: as §1, §2

Row | Binder | He/Con_2b (IIb binding)
13 | B1 | 116 % of GpH7-A5/GpH7-B3/GpL16-k0 (=100)
14 | B2 | 89.4 % of GpH7-A5/GpH7-B3/GpL16-k0 (=100)
15 | B3 | 172 % of GpH7-A5/GpH7-B3/GpL16-k0 (=100)
16 | B4 | 63.7 % of GpH7-A5/GpH7-B3/GpL16-k0 (=100)
17 | B7 | 11.9 % of GpH7-A5/GpH7-B3/GpL16-k0 (=100)
18 | B5 | 127 % of GpH7-A5/GpH7-B3/GpL16-k0 (=100)
19 | B6 | 140 % of GpH7-A5/GpH7-B3/GpL16-k0 (=100)

Each binder was assayed against T4, FcγRIa (human, UniProt P12314 16-292) (assay: SPR (Biacore), antibody captured on antigen peptide, FcγR as analyte; relative to GpH7-A5/GpH7-B3/GpL16-k0 = 100).
T4 construct: extracellular domain; Soluble extracellular domain with C-terminal His tag, used as analyte in Biacore; also called FcgRI; 1a; not shown: His tag attached to the C terminus
T4 sequence (P12314 16-292): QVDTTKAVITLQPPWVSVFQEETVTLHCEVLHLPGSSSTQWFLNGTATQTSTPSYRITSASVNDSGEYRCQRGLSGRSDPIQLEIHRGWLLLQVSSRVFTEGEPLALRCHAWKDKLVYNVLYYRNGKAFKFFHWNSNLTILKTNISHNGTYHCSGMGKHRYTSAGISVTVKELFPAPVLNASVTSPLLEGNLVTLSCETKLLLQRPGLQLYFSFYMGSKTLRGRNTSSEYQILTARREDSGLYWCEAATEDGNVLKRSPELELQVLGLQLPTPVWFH

Row | Binder | He/Con_1a
20 | B8 | 97.8 % of control
21 | B9 | 95.9 % of control
22 | B10 | 99.9 % of control
23 | B11 | 94.8 % of control
24 | B12 | 97.6 % of control
25 | B13 | 99 % of control
26 | B14 | 97.6 % of control
27 | B15 | 85.3 % of control
28 | B16 | 96 % of control
29 | B17 | 97.5 % of control

What follows are binders tested against T2, FcγRIIb in the same assay as above.

Row | Binder | He/Con_2b
30 | B8 | 107 % of control
31 | B9 | 108 % of control
32 | B10 | 123 % of control
33 | B11 | 171 % of control
34 | B12 | 217 % of control
35 | B13 | 101 % of control
36 | B14 | 110 % of control
37 | B15 | 102 % of control
38 | B16 | 115 % of control
39 | B17 | 197 % of control
